Target: HER2 on cancer cell lines (BT-474, SK-BR-3, MDA-MB-361-luc) (human) (UniProt P04626)
Experiment: cell-based or functional assay

Emax, BT-474 cell proliferation (CellTiter-Glo 2.0, 4 days): 41.5%
IC50, BT-474 cell proliferation (CellTiter-Glo 2.0, 4 days): 0.125 µg/mL
IC50, SK-BR-3 cell proliferation (CellTiter-Glo 2.0, 4 days): 0.431 µg/mL
Substance: ZW-25 bispecific antibody

From patent publication US20250295809A1
